From the DeepSol protein solubility set

Experiment: soluble on expression in E. coli; label from the status in PepcDB or PDB records

| Sequence | soluble on expression in E. coli |
| --- | --- |
| MPATPVPPVTMPPVPPVGFPPVTAPPGLHPPPPVPPVPVPTLPVTSEHKTAHDACIKRLEQLEIPPDPKIYPSPTEPGTFGSVTEVLTNVFGVEVHKTSNFYQYSVHITAELSSKKEVTFTKKGKEDFIVHDRHEKCSAILFHALNRFEDFFKSSENCIIYDGQSILFTSMNLFEGIPTGKIKTKVFQINGADTNLKDLMVLPCIKLEVFPTKNPVVNFSLEDIGRRTSDSNIESVNMAYKQILDLAMSQYAIRETSKCVVFEHGKMFFINPLQEGYAPCDIVEVGDGKQMKPGLKKTLQFIEGPYGRNQNNPSIVIDGMKVAFHMEQLVFQKLSSITSNLANGITGSERERCAAVIKGLDCHSNYRGRTRHHKIESIHHEGAATARFELEGGGTCTVATYFKDKYKIQLRYPNANLIVCKERGALNFYPMELITISPNQRVRITQQTSSQSQRTTKESAVLPDIRQRLIMTGKIAAKITAENEVLGKMGVTVCDEPLVVKGRNLPAIRLASFETGEHLINPRDCKWRPQRYNRSAVAPKVWALYGVGSPGSQMNRDVMRRFCDEFMNMSRSKGILFPPPGDVNLLTPDAIENRLREAANAGCTFVLCITEDNITCLHQKYKFIEHHTQMIVQDMKLSKALSVVNASKKLTLENVINKTNVKLGGSNYVYLDTKNFLQEHLIIGVGISSPPPGTKYIMESRGILNPTIVGFAYNGNGKQEFSGDFVLNAAGQETIAPIEDIVSYSIKGYKKFHDGKAPKRITIYRSGSSEGNHGPIISYEVPLARVAMRNFSPDTQLLYIVVSKEHTYRFFKKESGGSSSGGSNSAGASNSGTLTSAPPKPWELNIGPGLTVDYGVTNPACKQFFLNSHMTLQGSAKTPLYTVLADDRNIGMSALEEFTFNLCHLHQIVGLPTSIPTPLYVANEYAKRGRNLWNEAINANEIPEVTGPESARLKKMTDGISYMGSGDMIDRRVNA | not soluble |
| MSLNRDKPLKVMLVAAEASGDALGAGLAKALRARLGQGVTFVGIGGAKMAEQGVQSPFDIAQLSILGILESLKAYPRAMARLKDTVALAAREKPDVAVLIDSWGFNIRLAHALRRLDPTLPLVKYVAPQVWAYREGRAQALAKAVDLLLSIQPMDKAYFDAAGLQNVFVGNSALAKRFDHADPGRLRAAIGAAASQQILLVLPGSRPSEIERVMPAFEDAVRRLKVERPDLHIVVPAAYTVAEAVKARVAGWPFRAHVIEDEGLKDDAFLAGDVALACSGTVTTELALAGRPMVVGYKTGAVTYAIVKRLMKPRWITLFNIAAGKAVAPELIQHACEGEGLAREVALRLDDPDLRQRQTAEQYAALDRMGRGMPDPSEAAAEALLDFLSARGALGREGHHHHHH | not soluble |
| MKLALLGRQALMGVMAVALVAGMSAKSFADEGLLNKVKERGTLLVGLEGTYPPFSFQGEDGKLTGFEVDFAEALAKHLGVKASLKPTKWDGMLASLDAKRIDVVINQVTISDVRKKKYDFSTPYTVSGIQALVKKGNEGTIKTAADLQGKKVGVGLGTNYEEWLRQHVQGVDIRTYDDDPTKYQDLRVGRIDAILVDRLAALDLVKKTKGTLAVTGDAFSRQESGVALRKGNEDLLKAVDNAIAEMQKDGTLKALSEKWFGADVTQ | not soluble |
| MGSDKIHHHHHHAEDMVKPIENDKDAPGTVQDVKTESLPGAVKFTYTLPSDPDLLYVLAKYTNKTGKVMEFRSSFYTNSVTVEGFGDTDTYKVELYTVDRSENRSQPQIVEVVPLTPPILSCYESLSMVSDFGGMTFEMDNKFKSDLAIYVCTPDELGDMVLAETFYSAREEIVYSVRGYDAVPRRFGIFLQDKYGNETDTLFTELTPIYERELDKTKFREMYLQNDSRVDSYDGKMEYVWNGRISKDGDSGGVGLHTGTGTKDGPAVFTFDLGVLAKLSRFALWAIQDEKHFYNDMSPRRYEVWGCATEPNPDGSWDQWVKLLDMENVKPSGSPIGILTEDDIEAAKIGDQANVPLDMPRVRYIRIKCLKNWSNNYNICFTELTFWGNDNEE | not soluble |
| MGSDKIHHHHHHMKKLFVLFLAVLSVLVLAEVKNPDTIIDATIGEPDTLDPHFAYDTASGEVIYNVYENLIAYKGESLTEFEPRLAERWEILDDGKTYKFYIRKGVKFHEGGDLTPEDVEYSFERGLIFDPTAGPMWMLWEALFGVDSLETFVEEKIGKPYSELFDENGEPLPEYRDALIKIYTDYIDPAIEVEGDAVVFHLVRPFAPFMYILAQSASWSAVLDKEWCIEIGCWDGRADTWWKYHDIRKEDSPLYARMNGTGPFKFVEWDRAQQKVILERNDNYWREPAKIKRVIIWGIDEWSTRRAMFLQGDADICAVPTQYLEQVEGKPGVTVVKGLPELAVTSLHFAWNVPEDSKYIGSGKLDGNGIPPDFFSDENVRKAFIYAFDYDTFINEVLKGLGRKIPTDLPEGLLGFNEELLNDPDAPHFDIVKATEYFKKAWNGEVWKKGFKITLLYNTGNEVRRQAAEMLKAYIEMINPKFKVEVRGVQWPTYLDATKRGEVPAFIIGWLADYPDPHNFIFTYYHSAGVYSGRQGENFRKFVSTPHPDLGGRSLDELIEEAIAKTDPAERQALYEEIQRFAMKHALGMPLYQPLGVRVQRSWVKGWYHNPMRPGDDYYVLWKAEE | not soluble |
| MKLIAESGSTRTEWALVEDNHLVQRVFTEGLNPFFQTRREISRSVRLGLPESFFKKKLDQVYYYGAGCSSYEKKNILGASLVAQFKTPIQVESDLLAAARGLFKCEAGIACILGTGSNSCFYDGKIIVKNVKAAGYILGDEGSGAVLGKLFLADLLKGLAPKELANEFHEKFRISVNDVMESVYNLPFPNRFLGTIAYFLGDYMDNEYVYNLLTNNLRSFFNRNVCQYDYINYPIRFVGSLAYAYPDILQEVAQEFGVEIDVIEETPMNGLIEFHSMNIEESMAGDPLEHHHHHH | not soluble |
| MKYAVLIGDGMADYPIEELGSRTILQAARTPAMDSIAARGKTGLAKTVPEGFPPGSDVANMSIFGYDPAIYYSGRAPLEAASMGVALAADDVAFRCNLITIENGKIKDYSAGHISSDEAEILIDTLDSELRTEKVRFYPGISYRHLIVAGNDLGAETECTPPHDITGERKDDYLPRGKDGEFFSGLIEASTVVLELHPVNLKRVQEGKNPANSIWVWGQGYAPKFKTFQELYGKSGAIISAVDLLKGIGIYAGLDVIEVPGATGYLDTNYEGKASAAIEALKTRDLVFVHVEAPDEAGHEGSLEKKMKAIEDFDSRIVSPILKHAEASDETFTILVLPDHPTPISVKTHTRDPIPFAIYRTDAADPDGVEYFDEESVKNGSMGLVKASDLIGMLVKVLEHHHHHH | not soluble |
| MSIAVGMIETRGFPAVVEAADSMVKAARVTLVGYEKIGSGRVTVIVRGDVSGVQASVSAGIEAANRVNGGEVLSTHIIARPHENLEYVLPIRYTEEVEQFRTYGVPRGLEHHHHHH | soluble |
| GSMPRVVPDQRSKFENEEFFRKLSRECEIKYTGFRDRPHEERQTRFQNACRDGRSEIAFVATGTNLSLQFFPASWQGEQRQTPSREYVDLEREAGKVYLKAPMILNGVCVIWKGWIDLHRLDGMGCLEFDEERAQQEDALAQQ | soluble |
| MDDSMDYPDRDGDDLDQFQGTARSQVVQNQPHDEEVNLSESESFAGADEPPAAPRDASLIESHDMDEGPAAPARTLSPTGYEAGKHAPGGIANSDEAPPGAYNAQEYKHLNVGEDVRELFSYIGRYKPQTVELDTRIKPFIPDYIPAVGGIDEFIKVPRPDTKPDYLGLKVLDEPAAKQSDPTVLTLQLRQLSKEAPGAKADMVGRLEHTDENKAKKIQQWIASINDIHKAKPAATVNYSKRMPEIEALMQEWPPEVETFLKTMHMPSGDVELDIKTYARLVCTLLDIPVYDDPVESLHVLFTLYLEFKNNPIFRQHMEMENKLDGMSGGGGGMMGGGADVLGL | not soluble |
| MSLATVDKPLPPTDWKVVDNSKTYLKESAMRSFAFDDTLCTLAGKTGQSFIRFWVHENTIVLGTQDTRLPFIREAIEFIEQEGYRAVVRNSGGLAVCLDAGILNLSLVFPGEATFSIDEGYERMVTLVKAIFKEEQIEAGEIAGSYCPGSYDLSIDGKKFAGISQRRIRGGIAVQIYLCVQGSGSARAAFIRSVYNKAVQTSKPAFSYPDIKPEVMASLSELTNVPYSIETIIGRAKTAILESGGQLESAVLSPEEELLYETQLERMIDRHNRCLREGHHHHHH | soluble |
| MSLKIKLIAVDLDGTLLTSRKKVSPKTLATLKKAREKGILVVPLSGRPLPGVLKVFEPFKLDPADNFAICYNGGLVQRMDGEVLSVSPLTDENVEHMLALKQTGIFGPYFMDTKDFYVAPKGSSFGVGFLAKARNMGVKRMVPGQHYEFIKGEFVSLPSKIKKFRAGFSPATEQEFEISASGGQCLEFNTPGTSKGQALTTLLDLLNIQPEEAMVFGDNNNDLSDFQLPGVFKVAMGNAIDEIKAAADYVTASNNQDGIALAVEKFVDMEGHHHHHH | soluble |
| MGSDKIHHHHHHMESLKKCFDLQGKEIVSIVGSGGKTSLMWALAKTYRKEAVLVSTTTKIGFPQRQLYDYFYTNHFEKITPNICGITLAGTAINNQTKLTMPAMTSFQTLFQHFTKVFLEADGSKQRPLKGWSSYEPVILKETTTTIGVLPISVIGQKIDETTIHRLPLFLELTDAQLQEPITETLLAQLIDHPKGLFKESQGQRILCLNQTHTRREFVQAMNVCLQLPKSCFEKLDKIIACNMELEKGLILWEKSVKTSKKN | not soluble |
| MICPRCADAHIELMATSPVKGVWTVYQCQHCLYTWRDTEPLRRTSREHYPQAFRMTQKDIDDAPMVPSIPPLLAEDKR | not soluble |
| MSQGFKTEADVMRNTAHRVDDTNQEVSAELSRLRSIVDGVRASWEGTAQVSFDNLMQRWDASAKGLQDALQSISDNIRGNATSFENVEADNQSAFSAVGGQGLAL | not soluble |
| MGSDKIHHHHHHMYREYQPCGLLAPYVDKIWEFKGSPEYGMRINVLPDGCTDLIFALGGITQPVGSEGRIMPSCRSFFVGPMKRYSELVAYTETVHMVGIRFHPCGLFRFMDLPVQELGGQRISSADLGIKLFDDSFTERLYELPDLRSRIQCIETVLVRSMHKHDVVDKQIVFAVNHIHLYHGQREIRLLAEDTCLCQRHLERRFKLFTGFTPKEYSRIVKFRHAIDLLKNTTEANNLLSVAVNAGYYDVSHFLKEVKTLSGGTAESFLSPTLPQEGLLTYIEK | not soluble |
| MNKEMTLLPPPELVQYVGGDFKKVGKEFLKHFIQIGALKSNEKVLDVGCGVGRMAVPLMNYLNDDGAYYGFDLFKDGITWCQNNISTMRNNFHFEHVDIYNQFYNPEGKEDASQYRFPYEDGTFDFIFLTSVFTHLLPKELEHYVSEIVRVLKKDGRCFITFFLINPESSYYLNAGQSTLGFYHRIENCYVVNKDIPNFAVAYPETDICNLLNKYGLEIINKPHYGLWCGRHEYTSYQDIVLTKKSLEHHHHHH | not soluble |
| MQVPLNSADIDYAQFKDANGQEVLVIADGGKLKAFDGTKVYEIVPAPNESGYPANDLANINNKGLKGCVVHNTRVVIWDGSDTIWHSKIGYYDYFGQTDYQRFVRENDYVQTCVTFAGALLVFMRRHIGVLFGHDVEDWSQGFLDTQNGCINPKTVQTVTHPDGRQEVFYLSDNGVHAVYTIDTIEMDVSNRYSTRSVTEGLIDWKALGVTKDEWKRATAYFYDGRYWLIYPKGSEWRGLVYDTRLQAWFPINNVKANSFYHDEDYFYFAGDDGHLKVFDDTLYSDWNDKNKTSGTPINFYWYSKLLTPKLTGYDHFWDVLMIEAKQFPQKSALDVEVNTYLGRFTQEKAVKTASLVWGVTEWGEAQWQNPFLTEAVNNAKRLPTFLKGQYAQIKLSNNRDEPVEIYSLKYEVRLME | not soluble |
